The chains are these.
B1: Nup98^FG(298-327) peptide (peptide, UniProt P52948 298-327, looked up)
peptide: TGFSFGNTSTIGQPSTNTMGLFGVTQASQP
notes: Forms amyloid fibrils; each fibril layer holds five peptides (four parallel, one antiparallel); source: synthetic peptide (solid-phase synthesis, Genscript)
B2: FG-repeat domain of human Nup98 (Nup98^FG; residues 1-384), wild type (protein)
chain: MFNKSFGTPFGGGTGGFGTTSTFGQNTGFGTTSGGAFGTSAFGSSNNTGGLFGNSQTKPGGLFGTSSFSQPATSTSTGFGFGTSTGTANTLFGTASTGTSLFSSQNNAFAQNKPTGFGNFGTSTSSGGLFGTTNTTSNPFGSTSGSLFGPSSFTAAPTGTTIKFNPPTGTDTMVKAGVSTNISTKHQCITAMKEYESKSLEELRLEDYQANRKGPQNQVGAGTTTGLFGSSPATSSATGLFSSSTTNSGFAYGQNKTAFGTSTTGFGTNPGGLFGQQNQQTTSLFSKPFGQATTTQNTGFSFGNTSTIGQPSTNTMGLFGVTQASQPGGLFGTATNTSTGTAFGTGTGLFGQTNTGFGAVGSTLFGNNKLTTFGSSTTSAPSFG
B3: Nup98^FG F102S mutant (protein)
chain: MFNKSFGTPFGGGTGGFGTTSTFGQNTGFGTTSGGAFGTSAFGSSNNTGGLFGNSQTKPGGLFGTSSFSQPATSTSTGFGFGTSTGTANTLFGTASTGTSLSSSQNNAFAQNKPTGFGNFGTSTSSGGLFGTTNTTSNPFGSTSGSLFGPSSFTAAPTGTTIKFNPPTGTDTMVKAGVSTNISTKHQCITAMKEYESKSLEELRLEDYQANRKGPQNQVGAGTTTGLFGSSPATSSATGLFSSSTTNSGFAYGQNKTAFGTSTTGFGTNPGGLFGQQNQQTTSLFSKPFGQATTTQNTGFSFGNTSTIGQPSTNTMGLFGVTQASQPGGLFGTATNTSTGTAFGTGTGLFGQTNTGFGAVGSTLFGNNKLTTFGSSTTSAPSFG
B4: Nup98^FG F228S mutant (protein)
chain: MFNKSFGTPFGGGTGGFGTTSTFGQNTGFGTTSGGAFGTSAFGSSNNTGGLFGNSQTKPGGLFGTSSFSQPATSTSTGFGFGTSTGTANTLFGTASTGTSLFSSQNNAFAQNKPTGFGNFGTSTSSGGLFGTTNTTSNPFGSTSGSLFGPSSFTAAPTGTTIKFNPPTGTDTMVKAGVSTNISTKHQCITAMKEYESKSLEELRLEDYQANRKGPQNQVGAGTTTGLSGSSPATSSATGLFSSSTTNSGFAYGQNKTAFGTSTTGFGTNPGGLFGQQNQQTTSLFSKPFGQATTTQNTGFSFGNTSTIGQPSTNTMGLFGVTQASQPGGLFGTATNTSTGTAFGTGTGLFGQTNTGFGAVGSTLFGNNKLTTFGSSTTSAPSFG
B5: Nup98^FG F102S/F319S double mutant (protein)
chain: MFNKSFGTPFGGGTGGFGTTSTFGQNTGFGTTSGGAFGTSAFGSSNNTGGLFGNSQTKPGGLFGTSSFSQPATSTSTGFGFGTSTGTANTLFGTASTGTSLSSSQNNAFAQNKPTGFGNFGTSTSSGGLFGTTNTTSNPFGSTSGSLFGPSSFTAAPTGTTIKFNPPTGTDTMVKAGVSTNISTKHQCITAMKEYESKSLEELRLEDYQANRKGPQNQVGAGTTTGLFGSSPATSSATGLFSSSTTNSGFAYGQNKTAFGTSTTGFGTNPGGLFGQQNQQTTSLFSKPFGQATTTQNTGFSFGNTSTIGQPSTNTMGLSGVTQASQPGGLFGTATNTSTGTAFGTGTGLFGQTNTGFGAVGSTLFGNNKLTTFGSSTTSAPSFG
B6: Nup98^FG F319S mutant (protein)
chain: MFNKSFGTPFGGGTGGFGTTSTFGQNTGFGTTSGGAFGTSAFGSSNNTGGLFGNSQTKPGGLFGTSSFSQPATSTSTGFGFGTSTGTANTLFGTASTGTSLFSSQNNAFAQNKPTGFGNFGTSTSSGGLFGTTNTTSNPFGSTSGSLFGPSSFTAAPTGTTIKFNPPTGTDTMVKAGVSTNISTKHQCITAMKEYESKSLEELRLEDYQANRKGPQNQVGAGTTTGLFGSSPATSSATGLFSSSTTNSGFAYGQNKTAFGTSTTGFGTNPGGLFGQQNQQTTSLFSKPFGQATTTQNTGFSFGNTSTIGQPSTNTMGLSGVTQASQPGGLFGTATNTSTGTAFGTGTGLFGQTNTGFGAVGSTLFGNNKLTTFGSSTTSAPSFG

The first series concerns the molecule itself. Put plainly: cryo-EM structure; amyloid fibrils from 2 mM peptide in water, 25 °C for one day; helical reconstruction, 2.67 Å; five peptides in each layer.
Conditions: not given
Consider B1, for which the binding result was “binds”.

The target in a further series is P52948. Put plainly: 1D 1H NMR (loss of the signal of soluble protein); 100 μM protein in 50 mM sodium phosphate, 1 mM TCEP; pH raised from 3 to 7 with NaOH, measured immediately (deadtime ~5 min); 5 °C; amide region integrated; self-association into particles not detectable by NMR. The note with it: other: 1D 1H NMR (loss of the signal of soluble protein).
For B2, the “percent of the protein aggregated just after changing the pH to 7” value is listed as 67 % of the wild-type protein forms aggregates.
The same measure, in the same setting: the result for B3 reads “only 28 and 23 % of the protein aggregated, respectively”; that for B4, “in the F228S mutant 46% of the protein aggregates”.
B5: the “percent of the protein aggregated just after changing the pH to 7” value is “only 28 and 23 % of the protein aggregated, respectively”.
On the same count and under the same terms, under B6 stands “only 28 and 23 % of the protein aggregated, respectively”.

Values taken from publication PMC11076500, “Impact of distinct FG nucleoporin repeats on Nup98 self-association” (Nature Communications, 2024).
